# Source: paper PMC8134030 (Biochemistry and Biophysics Reports, 2021)
# T1: MBP:Ncd^FL (Drosophila, UniProt P20480 1-700)
# T1 sequence (looked up): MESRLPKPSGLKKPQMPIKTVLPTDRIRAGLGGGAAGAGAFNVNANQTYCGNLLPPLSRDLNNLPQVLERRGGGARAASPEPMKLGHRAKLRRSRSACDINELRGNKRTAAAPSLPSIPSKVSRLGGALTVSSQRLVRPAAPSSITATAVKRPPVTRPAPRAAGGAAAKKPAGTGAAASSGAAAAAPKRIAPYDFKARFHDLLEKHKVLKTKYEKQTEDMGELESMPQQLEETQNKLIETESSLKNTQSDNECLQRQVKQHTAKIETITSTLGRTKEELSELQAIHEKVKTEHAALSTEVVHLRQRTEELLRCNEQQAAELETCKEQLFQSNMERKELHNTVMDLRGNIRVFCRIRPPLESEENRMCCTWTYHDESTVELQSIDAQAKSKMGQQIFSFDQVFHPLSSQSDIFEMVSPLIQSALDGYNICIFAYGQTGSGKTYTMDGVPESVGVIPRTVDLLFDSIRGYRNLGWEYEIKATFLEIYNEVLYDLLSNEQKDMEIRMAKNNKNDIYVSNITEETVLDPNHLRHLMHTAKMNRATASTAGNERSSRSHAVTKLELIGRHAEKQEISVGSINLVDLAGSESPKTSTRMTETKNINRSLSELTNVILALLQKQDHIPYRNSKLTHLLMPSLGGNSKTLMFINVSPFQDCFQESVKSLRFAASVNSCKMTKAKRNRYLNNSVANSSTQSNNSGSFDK
# T2: MBP:Ncd^CTm (Drosophila, UniProt P20480 333-700)
# T2 sequence (looked up): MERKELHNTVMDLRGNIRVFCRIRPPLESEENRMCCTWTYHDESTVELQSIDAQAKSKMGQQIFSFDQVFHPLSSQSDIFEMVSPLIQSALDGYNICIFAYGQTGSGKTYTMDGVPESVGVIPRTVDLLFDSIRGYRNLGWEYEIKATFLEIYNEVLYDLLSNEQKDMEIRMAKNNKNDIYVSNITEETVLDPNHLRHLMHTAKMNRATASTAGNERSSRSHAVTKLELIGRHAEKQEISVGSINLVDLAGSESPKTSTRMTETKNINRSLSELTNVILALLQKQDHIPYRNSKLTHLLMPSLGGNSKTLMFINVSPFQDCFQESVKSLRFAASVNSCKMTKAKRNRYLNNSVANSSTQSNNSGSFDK
# T3: MBP:Ncd^CTm3A (Drosophila, UniProt P20480 333-700, H619A | R623A | H629A)
# T3 sequence (looked up): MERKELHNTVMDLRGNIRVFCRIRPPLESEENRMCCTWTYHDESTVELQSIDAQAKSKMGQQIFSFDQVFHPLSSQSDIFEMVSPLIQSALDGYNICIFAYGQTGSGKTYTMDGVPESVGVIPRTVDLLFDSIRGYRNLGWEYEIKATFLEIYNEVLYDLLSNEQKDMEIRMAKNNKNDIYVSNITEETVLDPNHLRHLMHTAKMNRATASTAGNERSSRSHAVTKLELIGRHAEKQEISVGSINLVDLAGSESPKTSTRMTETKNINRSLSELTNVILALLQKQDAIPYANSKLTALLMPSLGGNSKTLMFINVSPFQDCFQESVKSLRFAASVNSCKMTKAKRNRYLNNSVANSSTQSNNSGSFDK
# Tests used:
# Experiment in all cases: pull-down
# MBP:Ncd^FL = molecular target: T1, MBP:Ncd^FL
# MBP:Ncd^CTm = molecular target: T2, MBP:Ncd^CTm
# MBP:Ncd^CTm3A = molecular target: T3, MBP:Ncd^CTm3A
Binder,binding result (MBP:Ncd^FL),Kd (MBP:Ncd^CTm) [µM],fold reduction in binding affinity against WT (MBP:Ncd^CTm3A) [fold]
"Ncd^CTm, soluble untagged prey (domain or fragment, Drosophila, UniProt P20480 333-700, looked up) MERKELHNTVMDLRGNIRVFCRIRPPLESEENRMCCTWTYHDESTVELQSIDAQAKSKMGQQIFSFDQVFHPLSSQSDIFEMVSPLIQSALDGYNICIFAYGQTGSGKTYTMDGVPESVGVIPRTVDLLFDSIRGYRNLGWEYEIKATFLEIYNEVLYDLLSNEQKDMEIRMAKNNKNDIYVSNITEETVLDPNHLRHLMHTAKMNRATASTAGNERSSRSHAVTKLELIGRHAEKQEISVGSINLVDLAGSESPKTSTRMTETKNINRSLSELTNVILALLQKQDHIPYRNSKLTHLLMPSLGGNSKTLMFINVSPFQDCFQESVKSLRFAASVNSCKMTKAKRNRYLNNSVANSSTQSNNSGSFDK",binds,–,–
"Ncd^nMBD, soluble untagged prey (domain or fragment, Drosophila, UniProt P20480 1-204, looked up) MESRLPKPSGLKKPQMPIKTVLPTDRIRAGLGGGAAGAGAFNVNANQTYCGNLLPPLSRDLNNLPQVLERRGGGARAASPEPMKLGHRAKLRRSRSACDINELRGNKRTAAAPSLPSIPSKVSRLGGALTVSSQRLVRPAAPSSITATAVKRPPVTRPAPRAAGGAAAKKPAGTGAAASSGAAAAAPKRIAPYDFKARFHDLLE",–,~2,~10
